Test results from patent US20210388110A1 (published 2021).
Changes are numbered by the printed parent chain.

B1: TR01H082-E22Hh/none-Hi-Kn010G3/L0212-k0 (antibody, human IgG1, kappa, L234A L235A, N297A)
heavy: QVQLVESGGGLVQPGRSLRLSCAASGFTFSNAWMHWVRQAPGKGLEWVAQIKDKSQNYATYYAESVKGRFTISRDDSKNSLYLQMNSLKTEDTAVYYCRYVHYAAGYGVDAWGQGTTVTVSSASTKGPSVFPLAPSSKSTSGGTAALGCLVKDYFPEPVTVSWNSGALTSGVHTFPAVLQSSGLYSLSSVVTVPSSSLGTQTYICNVNHKPSNTKVDKKVEPKSCDKTHTCPPCPAPEAAGGPSVFLFPPKPKDTLMISRTPEVTCVVVDVSHEDPEVKFNWYVDGVEVHNAKTKPREEQYASTYRVVSVLTVLHQDWLNGKEYKCKVSNKALPAPIEKTISKAKGQPREPQVYTLPPSRCELTKNQVSLSCAVKGFYPSDIAVEWESNGQPENNYKTTPPVLDSDGSFFLVSKLTVDKSRWQQGNVFSCSVMHEALHNHYTQKSLSLSPDYKDDDDK
chain: EPKSSDKTHTCPPCPAPELLGGPSVFLFPPKPKDTLMISRTPEVTCVVVDVSHEDPEVKFNWYVDGVEVHNAKTKPREEQYNSTYRVVSVLTVLHQDWLNGKEYKCKVSNKALPAPIEKTISKAKGQPREPQVCTLPPSRDELTKNQVSLWCLVKGFYPSDIAVEWESNGQPENNYKTTPPVLDSDGSFFLYSKLTVDKSRWQQGNVFSCSVMHEALHNRYTQKSLSLSP
light: DIVMTQSPLSLPVTPGEPASISCRPSQSPVHSNRNTYLHWYQQKPGQAPRLLIYKVSNRFSGVPDRFSGSGSGTDFTLKISRVEAEDVGVYYCYQGTQVPYTFGQGTKLEIKRTVAAPSVFIFPPSDEQLKSGTASVVCLLNNFYPREAKVQWKVDNALQSGNSQESVTEQDSKDSTYSLSSTLTLSKADYEKHKVYACEVTHQGLSSPVTKSFNRGEC
notes: single-arm
B2: TR01H082-E22Hh/none-Hi-Kn010G3/L0259-k0 (antibody, human IgG1, kappa, L234A L235A, N297A)
heavy: B1 heavy
chain: B1 chain
light: B1 light with P25S, L38I, Y94T
notes: single-arm
B3: TR01H082-E22Hh/none-Hi-Kn010G3/TR01L023-k0 (antibody, human IgG1, kappa, L234A L235A, N297A)
heavy: B1 heavy
chain: B1 chain
light: B1 light with P25S, Q42L, A48S, R50Q, Y94T
notes: single-arm
B4: TR01H083-E22Hh/none-Hi-Kn010G3/L0222-k0 (antibody, human IgG1, kappa, L234A L235A, N297A)
heavy: B1 heavy with Q56N, D75A, L81I, A111I
chain: B1 chain
light: B1 light with P25S, L38I, H39Q
notes: single-arm
B5: TR01H082-E22Hh/none-Hi-Kn010G3/L0264-k0 (antibody, human IgG1, kappa, L234A L235A, N297A)
heavy: B1 heavy
chain: B1 chain
light: B1 light with Y94A
notes: single-arm
B6: TR01H083-E22Hh/none-Hi-Kn010G3/L0011-k0 (antibody, human IgG1, kappa, L234A L235A, N297A)
heavy: B1 heavy with Q56N, D75A, L81I, A111I
chain: B1 chain
light: B1 light with P25S, S28P, P29L, Y94G
notes: single-arm
B7: TR01H083-E22Hh/none-Hi-Kn010G3/L0000-k0 (antibody, human IgG1, kappa, L234A L235A, N297A)
heavy: B1 heavy with Q56N, D75A, L81I, A111I
chain: B1 chain
light: B1 light with P25S, P29L, Y94G
notes: single-arm
B8: TR01H084-E22Hh/none-Hi-Kn010G3/L0262-k0 (antibody, human IgG1, kappa, L234A L235A, N297A)
heavy: B1 heavy with L11V, R16G, D75A, L81I, A111I
chain: B1 chain
light: B1 light with P25S, S28P, Y94A
notes: single-arm
B9: TR01H082-E22Hh/none-Hi-Kn010G3/L0260-k0 (antibody, human IgG1, kappa, L234A L235A, N297A)
heavy: B1 heavy
chain: B1 chain
light: B1 light with Y94T
notes: single-arm
B10: TR01H083-E22Hh/none-Hi-Kn010G3/L0201-k0 (antibody, human IgG1, kappa, L234A L235A, N297A)
heavy: B1 heavy with Q56N, D75A, L81I, A111I
chain: B1 chain
light: B1 light with P25S, S28P, Y94G
notes: single-arm
B11: TR01H084-E22Hh/none-Hi-Kn010G3/L0011-k0 (antibody, human IgG1, kappa, L234A L235A, N297A)
heavy: B1 heavy with L11V, R16G, D75A, L81I, A111I
chain: B1 chain
light: B1 light with P25S, S28P, P29L, Y94G
notes: single-arm
B12: TR01H082-E22Hh/none-Hi-Kn010G3/TR01L024-k0 (antibody, human IgG1, kappa, L234A L235A, N297A)
heavy: B1 heavy
chain: B1 chain
light: B1 light with R24Q, P25A, Q27E, Q42L, A48S, R50Q, Y94T
notes: single-arm
B13: TR01H084-E22Hh/none-Hi-Kn010G3/L0201-k0 (antibody, human IgG1, kappa, L234A L235A, N297A)
heavy: B1 heavy with L11V, R16G, D75A, L81I, A111I
chain: B1 chain
light: B1 light with P25S, S28P, Y94G
notes: single-arm
B14: TR01H083-E22Hh/none-Hi-Kn010G3/L0212-k0 (antibody, human IgG1, kappa, L234A L235A, N297A)
heavy: B1 heavy with Q56N, D75A, L81I, A111I
chain: B1 chain
light: B1 light
notes: single-arm
B15: TR01H083-E22Hh/none-Hi-Kn010G3/L0262-k0 (antibody, human IgG1, kappa, L234A L235A, N297A)
heavy: B1 heavy with Q56N, D75A, L81I, A111I
chain: B1 chain
light: B1 light with P25S, S28P, Y94A
notes: single-arm
B16: TR01H082-E22Hh/none-Hi-Kn010G3/TR01L018-k0 (antibody, human IgG1, kappa, L234A L235A, N297A)
heavy: B1 heavy
chain: B1 chain
light: B1 light with R24Q, P25A, Q27E, Q42L, A48S, R50Q, Y94G
notes: single-arm
B17: TR01H082-E22Hh/none-Hi-Kn010G3/L0263-k0 (antibody, human IgG1, kappa, L234A L235A, N297A)
heavy: B1 heavy
chain: B1 chain
light: B1 light with P25S, L38I, Y94A
notes: single-arm
B18: TR01H084-E22Hh/none-Hi-Kn010G3/L0271-k0 (antibody, human IgG1, kappa, L234A L235A, N297A)
heavy: B1 heavy with L11V, R16G, D75A, L81I, A111I
chain: B1 chain
light: B1 light with P25S, S28P, N35Q, Y94G
notes: single-arm
B19: TR01H082-E22Hh/none-Hi-Kn010G3/L0262-k0 (antibody, human IgG1, kappa, L234A L235A, N297A)
heavy: B1 heavy
chain: B1 chain
light: B1 light with P25S, S28P, Y94A
notes: single-arm
B20: TR01H084-E22Hh/none-Hi-Kn010G3/L0000-k0 (antibody, human IgG1, kappa, L234A L235A, N297A)
heavy: B1 heavy with L11V, R16G, D75A, L81I, A111I
chain: B1 chain
light: B1 light with P25S, P29L, Y94G
notes: single-arm
B21: TR01H082-E22Hh/none-Hi-Kn010G3/L0267-k0 (antibody, human IgG1, kappa, L234A L235A, N297A)
heavy: B1 heavy
chain: B1 chain
light: B1 light with Y94V
notes: single-arm
B22: TR01H082-E22Hh/none-Hi-Kn010G3/L0258-k0 (antibody, human IgG1, kappa, L234A L235A, N297A)
heavy: B1 heavy
chain: B1 chain
light: B1 light with P25S, S28P, Y94T
notes: single-arm
B23: TR01H084-E22Hh/none-Hi-Kn010G3/L0270-k0 (antibody, human IgG1, kappa, L234A L235A, N297A)
heavy: B1 heavy with L11V, R16G, D75A, L81I, A111I
chain: B1 chain
light: B1 light with P25S, P29L, N35Q, Y94G
notes: single-arm
B24: TR01H082-E22Hh/none-Hi-Kn010G3/L0266-k0 (antibody, human IgG1, kappa, L234A L235A, N297A)
heavy: B1 heavy
chain: B1 chain
light: B1 light with P25S, S28P, Y94V
notes: single-arm

What follows are binders tested against T1, soluble human CD3ε chain (human, UniProt P07766 23-126, limits assumed) (assay: SPR (Biacore)).
T1 construct: the text says soluble human CD3ε chain; also called human CD3 epsilon chain
T1 sequence (P07766 23-126 limits assumed): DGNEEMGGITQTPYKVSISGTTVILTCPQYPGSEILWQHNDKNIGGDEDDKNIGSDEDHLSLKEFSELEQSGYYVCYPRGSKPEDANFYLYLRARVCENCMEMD

**Q.** Which Kd does the source give for B1 here?
**A.** 4.75 nM

**Q.** How did the Kd turn out when B2 was run?
**A.** 50.7 nM

**Q.** With B3 as the binder, how does the Kd read?
**A.** 42.5 nM

**Q.** With B4 as the binder, how does the Kd read?
**A.** 9.42 nM

**Q.** For B5, which Kd is on record?
**A.** 34.4 nM

**Q.** For B6, which Kd is on record?
**A.** 6.7 nM

**Q.** B7 was tested. Which Kd did it give?
**A.** 6.83 nM

**Q.** How did the Kd turn out when B8 was run?
**A.** 8.51 nM

**Q.** Which Kd does the source give for B9 here?
**A.** 45.3 nM

**Q.** Which Kd does the source give for B10 here?
**A.** 4.42 nM

**Q.** How did the Kd turn out when B11 was run?
**A.** 19.8 nM

**Q.** For B12, which Kd is on record?
**A.** 47.6 nM

**Q.** With B13 as the binder, how does the Kd read?
**A.** 16.5 nM

**Q.** For B14, which Kd is on record?
**A.** 0.0586 nM

**Q.** How did the Kd turn out when B15 was run?
**A.** 2.45 nM

**Q.** Which Kd does the source give for B16 here?
**A.** 47.2 nM

**Q.** How did the Kd turn out when B17 was run?
**A.** 30.9 nM

**Q.** How did the Kd turn out when B18 was run?
**A.** 27.6 nM

**Q.** How did the Kd turn out when B19 was run?
**A.** 39.8 nM

**Q.** B20 was tested. Which Kd did it give?
**A.** 21.3 nM

**Q.** B21 was tested. Which Kd did it give?
**A.** 22.9 nM

**Q.** For B22, which Kd is on record?
**A.** 47 nM

**Q.** How did the Kd turn out when B23 was run?
**A.** 27.6 nM

**Q.** How did the Kd turn out when B24 was run?
**A.** 22.9 nM
